Test [1] has as its target Trichoplusia ni (Tni) beta-tubulin (Trichoplusia ni (endogenous in Tni cells)). The experiment in a line: cryo-EM structure.
For test [2] the target is unchanged. As to the kind of experiment: cryo-EM structure. This is another data set of the same source.

Read-outs that look alike come from different tables or passages of the source.

The stoichiometry N is a count of units in the complex or per binding partner. Turning to “Trichoplusia ni (Tni) beta-tubulin (natural protein)”, the stoichiometry N in test [1] and in test [2] was 2 each time.

Source of the values: paper doi:10.64898/2025.12.30.697104.
